Results: US20240317807A1 (COMPLIX, published 2024)
Substitutions are numbered along the chain they refer to. Values belong to the binder of their own block, whether it stands above or below them.

Columns and labels:
human serum albumin [1] = molecular target: T1, human serum albumin (human, UniProt P02768 25-609); assay: solution ELISA, free CPAB detected on milk-blocked plate
T1 construct: also called HSA
Experimental: (§1) A Nunc plate was blocked O/N with PBS+2% skimmed milk in PBS at 4° C. […] In addition, a ‘calibrator’ dilution series of CPAB (seven 3-fold dilutions starting at 100 nM plus a blank) in 100 mM TRIS+100 mM NaCl+1% BSA at pH 7.4 was prepared. The albumin-CPAB mixtures and the calibrator series were then transferred to the ELISA plate in duplicate (two columns for each series) and incubated for another 30 min at RT while shaking. Detection of plate-bound CPAB was performed with 1/5000 anti-V5-HRP (Invitrogen. R961-25) in PBS+0.1% BSA for 30 min at RT while shaking. After each incubation step, the plate was washed 4× with PBS containing 0.05% Tween 20.

mouse serum albumin = molecular target: T2, mouse serum albumin (mouse, UniProt P07724 25-608); assay: as above
T2 construct: also called MSA
T2 sequence (P07724 25-608 limits assumed): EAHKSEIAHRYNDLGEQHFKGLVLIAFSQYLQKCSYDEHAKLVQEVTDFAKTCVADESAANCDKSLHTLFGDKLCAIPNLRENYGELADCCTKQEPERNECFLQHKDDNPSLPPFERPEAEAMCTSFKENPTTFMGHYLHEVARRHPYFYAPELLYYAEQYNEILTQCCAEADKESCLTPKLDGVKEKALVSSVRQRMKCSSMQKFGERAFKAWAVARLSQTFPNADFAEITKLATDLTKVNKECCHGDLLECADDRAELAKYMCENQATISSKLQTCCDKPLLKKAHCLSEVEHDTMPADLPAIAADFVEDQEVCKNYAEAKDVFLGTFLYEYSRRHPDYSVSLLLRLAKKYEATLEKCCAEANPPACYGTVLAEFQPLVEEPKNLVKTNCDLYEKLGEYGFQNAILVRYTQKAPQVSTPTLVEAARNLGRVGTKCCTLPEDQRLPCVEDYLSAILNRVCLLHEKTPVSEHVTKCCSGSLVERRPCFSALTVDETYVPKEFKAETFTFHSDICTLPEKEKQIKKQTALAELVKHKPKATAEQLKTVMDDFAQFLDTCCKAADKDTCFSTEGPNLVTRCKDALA
Experimental: as §1

[2] = molecular target: T3, GST-tagged MCL-1 (GST-MCL-1 fusion protein, MCL-1 residues Asp172-Gly327) (human, UniProt Q07820 173-327); assay: solution ELISA, free GST-MCL-1 captured on Alphabody phage
T3 construct: not shown: Glutathione S-transferase fusion partner from the pET42 vector (Novagen)
T3 sequence (Q07820 173-327): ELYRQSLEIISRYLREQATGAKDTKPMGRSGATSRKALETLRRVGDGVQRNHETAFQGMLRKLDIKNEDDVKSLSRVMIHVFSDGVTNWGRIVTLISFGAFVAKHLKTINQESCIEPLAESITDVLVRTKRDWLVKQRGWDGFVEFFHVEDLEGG
Experimental: A Nunc plate was coated with 1 μg/mL anti-M13 (Fischer Scientific) in PBS for 2 h at room temperature (RT). The plate was then blocked with 2% skimmed milk in PBS for 2 h at RT while shaking. […] After each incubation step, the plate was washed 4× with PBS containing 0.05% Tween 20, except after the incubation step of the mixture and calibrator samples where the plate was washed 12 times. The plate was developed with Sure Blue and the reaction was stopped with H₂SO₄. Optical densities (ODs) were read at 450 nm.

human serum albumin [3] = molecular target: T1, human serum albumin; assay: solution ELISA, KD 310 nM against 7.5 nM
Experimental: as §1

[4] = molecular target: MCL-1 (endogenous, in human multiple myeloma cells such as NCI-H929) (human, UniProt Q07820 1-350); assay: cell-based or functional assay
Sequence of MCL-1 (endogenous, in human multiple myeloma cells such as NCI-H929) (Q07820 whole entry): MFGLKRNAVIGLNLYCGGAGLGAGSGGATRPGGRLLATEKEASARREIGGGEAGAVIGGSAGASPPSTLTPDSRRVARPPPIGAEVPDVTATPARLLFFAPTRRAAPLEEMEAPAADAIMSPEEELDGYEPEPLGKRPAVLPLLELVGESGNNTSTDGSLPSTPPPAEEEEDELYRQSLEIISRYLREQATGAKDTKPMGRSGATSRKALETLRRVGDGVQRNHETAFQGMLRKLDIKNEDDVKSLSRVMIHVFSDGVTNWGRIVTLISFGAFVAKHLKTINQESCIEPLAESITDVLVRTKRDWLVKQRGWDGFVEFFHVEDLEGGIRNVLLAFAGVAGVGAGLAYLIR

Kd (human serum albumin [1]): 310 nM
Kd (mouse serum albumin): 2250 nM
Kd [2]: 0.028 nM
fold reduction in affinity against the Gly40 form (human serum albumin [3]): 40 fold
in vitro IC50 on MM cell line MOLP-8 [4]: 820 nM
in vitro IC50 on MM cell line NCI-H929 [4]: 450 nM
B1: Alphabody CMPX-383B (designed binder)
chain: MGHHHHHHHHHHSSGHIEGRHGPRPRPRPRPRPRPRPGGMSTEQIQKRTAAIQKRIAAIQKRIYAMTASGGAGAAGAGAGMSIEEITKQIAAIQLRIVGDQVQIAYQTASGAGAGAGGMSTEEIQKQIAAIETQICKIEAAIELKEAGITSDFYFELINKAKTCEAVEALKEHILAAHTPRPRPRPRPRPRPRPGSGKPIPNPLLGLDST
notes: an engineered disulfide bond links helix E to helix C; Has Ala at the position called 40

Kd (human serum albumin [1]): 7.5 nM
Kd (mouse serum albumin): 298 nM
Kd [2]: 0.043 nM
B2: CMPX_383B_Gly40 (designed binder)
chain: B1 chain with A166G
